Experiment [1] has as its target PDGFRα-Fc Site 3 mutant (E208N, S210S as printed) (human) (UniProt P16234). The experiment is described as follows: BLI (Octet Red); PDGFRα-Fc captured on anti-human Fc sensors, trimer as soluble analyte.
Experiment [2] addresses T1, PDGFRα-Fc Site 1 mutant (E52N, E54S) (human, UniProt P16234 24-528).
T1 construct: range 1-528; Mutations meant to introduce an N-linked glycosylation site; not shown: C-terminal human IgG1 (Fc) tag
Described as above.

Experiment [3] concerns the target T2, PDGFRα-Fc Site 4 mutant (E263N, K265S) (human, UniProt P16234 24-528).
T2 construct: range 1-528; Mutations meant to introduce an N-linked glycosylation site; not shown: C-terminal human IgG1 (Fc) tag
Described as above.

Experiment [4] addresses T3, PDGFRα-Fc Site 2 mutant (E108N, N110S) (human, UniProt P16234 24-528).
T3 construct: range 1-528; Mutations meant to introduce an N-linked glycosylation site; not shown: C-terminal human IgG1 (Fc) tag
Described as above.

The target of experiment [5] is T4, PDGFRα-Fc wild type (human PDGFRα (1-528) with C-terminal human IgG1 Fc tag) (human, UniProt P16234 24-528).
T4 construct: range 1-528; also called WT; PDGFRα WT; not shown: C-terminal human IgG1 (Fc) tag
The experiment is described as above.

The target of experiment [6] is T4, PDGFRα-Fc wild type (human PDGFRα …). The experiment is described as follows: BLI with PDGFRα-Fc (FIG. 7D).

Results on 3 molecules are retold here after patent US20230295273A1 (published 2023).

T4 sequence (P16234 24-528 limits assumed, form in doubt): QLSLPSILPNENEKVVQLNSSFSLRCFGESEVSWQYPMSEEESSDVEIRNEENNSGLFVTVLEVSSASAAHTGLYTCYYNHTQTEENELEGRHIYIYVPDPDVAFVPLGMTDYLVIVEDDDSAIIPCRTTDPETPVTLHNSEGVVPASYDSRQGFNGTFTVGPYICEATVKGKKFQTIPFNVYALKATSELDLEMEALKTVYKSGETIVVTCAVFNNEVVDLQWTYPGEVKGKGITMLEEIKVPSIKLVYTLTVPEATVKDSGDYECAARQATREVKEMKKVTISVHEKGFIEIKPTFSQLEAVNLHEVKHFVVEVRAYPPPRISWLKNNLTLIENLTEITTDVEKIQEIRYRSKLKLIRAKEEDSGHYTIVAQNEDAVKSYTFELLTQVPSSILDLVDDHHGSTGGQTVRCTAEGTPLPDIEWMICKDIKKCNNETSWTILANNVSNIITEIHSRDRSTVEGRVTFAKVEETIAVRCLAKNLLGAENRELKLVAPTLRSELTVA
T2 sequence (P16234 24-528 E263N/K265S limits assumed, form in doubt): as the sequence (P16234 24-528 limits assumed, form in doubt) above, with E240N, K242S counted along it
T3 sequence (P16234 24-528 E108N/N110S limits assumed, form in doubt): as the sequence (P16234 24-528 limits assumed, form in doubt) above, with E85N, N87S counted along it
Chain of PDGFRα-Fc Site 3 mutant (E208N, S210S as printed) (human) (P16234 24-528, stated change not applied): as the sequence (P16234 24-528 limits assumed, form in doubt) above
T1 sequence (P16234 24-528 E52N/E54S limits assumed, form in doubt): as the sequence (P16234 24-528 limits assumed, form in doubt) above, with E29N, E31S counted along it

Take “HCMV gHgLgO trimer (soluble region, wild-type gO) (from UniProt P12824 24-716; Q68672 31-278)”: in experiment [1], the Kd (usually the free concentration of one partner at which half of the binding sites on the other are occupied at equilibrium, for simple one-to-one binding) stood at 21.5 nM.

B1: HCMV gHgLgO trimer (soluble region, wild-type gO) (other)
chain 1: […]
chain 2: VAVSVAPTAAEKVPAECPELTRRCLLGEVFQGDKYESWLRPLVNVTGRNGPLSQLIRYRPVTPEAANSVLLDDAFLDTLALLYNNPDQLRALLTLLSSDTAPRWMTVMRGYSECGDGSPAVYTCVDDLCRGYDLTRLSYGRSIFTEHVLGFELVPPSLFNVVVAIRNEATRTNRAVRLPVSTAAAPEGITLFYGLYNAVKEFCLRHQLDPPLLRHLDKYYAGLPPELKQTRVNLPAHSRYGPQAVDAR
chain 3: […]
notes: Expressed in Expi293 cells; gH, gL and gO are disulfide-linked; also called HCMV trimer; gHgLgO complex; not shown: C-terminal Myc-Avi-His tag; C-terminal Twin-Strep-tag
On to B1, for which the Kd in experiment [2] is 16.5 nM; in experiment [3], 4.65 nM; in experiment [4], 2.7 nM; in experiment [5], 2.25 nM.

B2: HCMV gHgLgO trimer with charge mutations at gO (M84R, F111R, R117E, F136R, R212E, R230E, R234E, R336E, F342E, A351R, N358R) (other)
chain 1: […]
chain 2: B1 chain 2
chain 3: […]
notes: also called Trimermut; TrimerMUT; not shown: C-terminal Myc-Avi-His tag; C-terminal Twin-Strep-tag
B2: in experiment [6], the Kd came out at 42500 nM and the “fold reduction of binding against Trimer-WT” value is roughly 10000 times.
